Measurements published in patent US7329728.

Key:
Assay in all cases: cell-based or functional assay
Cf2-PBD-VP64 (human) = Cf2-PBD-VP64 (human) (UniProt P06401)
ER-KRAB (mouse; human) = ER-KRAB (mouse; human) (UniProt P19785)
ER-VP64 (mouse) = ER-VP64 (mouse) (UniProt P19785)
ER-VP64 (mouse), sequence (P19785 282-599 G525R): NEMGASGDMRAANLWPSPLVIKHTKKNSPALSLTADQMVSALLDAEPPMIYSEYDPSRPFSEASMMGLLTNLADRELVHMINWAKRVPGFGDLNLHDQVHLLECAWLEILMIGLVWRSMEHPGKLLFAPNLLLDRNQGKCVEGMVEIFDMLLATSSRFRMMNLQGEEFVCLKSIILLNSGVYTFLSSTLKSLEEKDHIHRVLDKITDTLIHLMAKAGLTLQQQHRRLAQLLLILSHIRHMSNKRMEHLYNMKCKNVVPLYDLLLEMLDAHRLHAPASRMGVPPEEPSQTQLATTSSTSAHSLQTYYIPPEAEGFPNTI

C7-PBD-VP64, sequence (P06401 640-914): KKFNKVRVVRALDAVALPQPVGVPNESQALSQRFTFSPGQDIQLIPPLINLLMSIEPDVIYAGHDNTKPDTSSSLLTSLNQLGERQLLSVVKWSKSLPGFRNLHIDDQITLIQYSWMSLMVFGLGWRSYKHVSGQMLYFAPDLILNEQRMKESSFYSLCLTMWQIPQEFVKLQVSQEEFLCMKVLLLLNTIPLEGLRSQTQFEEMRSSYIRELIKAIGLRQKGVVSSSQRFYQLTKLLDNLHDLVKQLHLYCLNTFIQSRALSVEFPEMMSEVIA
Cf2-PBD-VP64 (human), sequence (P06401 640-914): as above
ER-KRAB (mouse; human), sequence (P19785 other isoform, or with tags, fused parts or gaps): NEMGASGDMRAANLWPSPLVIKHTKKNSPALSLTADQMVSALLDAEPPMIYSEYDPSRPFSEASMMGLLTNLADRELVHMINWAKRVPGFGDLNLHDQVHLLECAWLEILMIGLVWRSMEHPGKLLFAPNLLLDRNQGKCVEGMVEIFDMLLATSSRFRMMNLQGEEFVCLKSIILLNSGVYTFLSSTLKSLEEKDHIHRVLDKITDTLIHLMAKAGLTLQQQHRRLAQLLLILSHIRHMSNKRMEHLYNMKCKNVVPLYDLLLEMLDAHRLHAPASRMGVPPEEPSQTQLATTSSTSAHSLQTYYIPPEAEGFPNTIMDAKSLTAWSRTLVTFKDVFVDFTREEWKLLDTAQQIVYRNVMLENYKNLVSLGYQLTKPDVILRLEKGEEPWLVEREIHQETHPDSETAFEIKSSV

## C7-PBD-VP64 (from UniProt P06401 640-914)
Cf2-PBD-VP64 (human)
  ligand-dependent change in transcription of a C7-Cf2 TATA luciferase reporter: 2 fold

## E2C-ER (from UniProt P19785 282-599)
ER-KRAB (mouse; human)
  tamoxifen-dependent repression of the erbB-2 promoter (luciferase): 2.9 fold
ER-VP64 (mouse)
  erbB-2 promoter luciferase activity in HeLa cells, on addition of Tamoxifen: 3 fold
